Test results published in article PMC3474761.

System: Hfq (His-tagged) (Burkholderia cenocepacia J2315?)
Test: EMSA
Conditions: RNA binding buffer (composition in cited ref. 21), 25 ul, 30 min at 25 C, salt and pH not stated

| Substance | Kd (excess unlabelled yeast tRNA) | Kd (apparent Kd, 2.5 nM RNA, 0-10 nM Hfq6, excess yeast tRNA, excess unlabelled yeast …) |
| --- | --- | --- |
| hfq2 5'-UTR (216 nt) | 9.5 nM | – |
| h2cR sRNA (136 nt) | – | 1.5 nM |
